Laboratory results as given in patent US20140193415A1 (Hoffmann-La Roche, published 2014).

Each binder was assayed against human EGFR on human tumor cells (A549, BxPC3) (human, UniProt P00533 25-1200) (assay: cell-based or functional assay).

| Binder | Inhibition of EGFR phosphorylation (IC50) A549 | Inhibition of EGFR phosphorylation (IC50) BxPC3 |
| --- | --- | --- |
| OA-Ak18-scFab-GA201 (bispecific antibody, V domains shown) VH 1: QVELVESGGGVVQPGRSQRLSCAASGFTFSSYGMHWVRQAPGKGLEWVAIIWFDGSSTYYADSVRGRFTISRDNSKNTLYLQMNSLRAEDTAVYFCARELGRRYFDLWGRGTLVSVSS VL 1: EIVLTQSPATLSLSPGERATLSCRASQSVSSYLAWYQQKPGQAPRLLIYDASKRATGIPARFSGSGSGTDFTLTISSLEPEDFAVYYCQQRSKWPPWTFGQGTKVESK VH 2: QVQLVQSGAEVKKPGSSVKVSCKASGFTFTDYKIHWVRQAPGQGLEWMGYFNPNSGYSTYAQKFQGRVTITADKSTSTAYMELSSLRSEDTAVYYCARLSPGGYYVMDAWGQGTTVTVSS VL 2: DIQMTQSPSSLSASVGDRVTITCRASQGINNYLNWYQQKPGKAPKRLIYNTNNLQTGVPSRFSGSGSGTEFTLTISSLQPEDFATYYCLQHNSFPTFGQGTKLEIKRT | 0.23 nM | 1.67 nM |
| OA-F13B5-scFab-GA201 (bispecific antibody, human IgG1, kappa) heavy 1: not shown heavy 2: not shown light: DIQMTQSPSSLSASVGDRVTITCRASQGINNYLNWYQQKPGKAPKRLIYNTNNLQTGVPSRFSGSGSGTEFTLTISSLQPEDFATYYCLQHNSFPTFGQGTKLEIKRTVAAPSVFIFPPSDEQLKSGTASVVCLLNNFYPREAKVQWKVDNALQSGNSQESVTEQDSKDSTYSLSSTLTLSKADYEKHKVYACEVTHQGLSSPVTKSFNRGEC | 0.23 nM | 0.82 nM |
| OA-L31D11-scFab-GA201 (bispecific antibody, human IgG1, kappa) heavy 1: not shown heavy 2: not shown light: DIQMTQSPSSLSASVGDRVTITCRASQGINNYLNWYQQKPGKAPKRLIYNTNNLQTGVPSRFSGSGSGTEFTLTISSLQPEDFATYYCLQHNSFPTFGQGTKLEIKRTVAAPSVFIFPPSDEQLKSGTASVVCLLNNFYPREAKVQWKVDNALQSGNSQESVTEQDSKDSTYSLSSTLTLSKADYEKHKVYACEVTHQGLSSPVTKSFNRGEC | 0.19 nM | 0.47 nM |
